Test results reported in a protein production outcome set (Wang et al. 2014).

Test: label from the status in PepcDB records
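Further: failed if final PepcDB status was selected cloned or expressed and not failed if soluble or beyond.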

| Sequence | protein production |
| --- | --- |
| MNDFSLELPVRTNKPRETGQSILIDNGYPLQFFKDAIAGASDYIDFVKFGWGTSLLTKDLEEKISTLKEHDITFFFGGTLFEKYVSQKKVNEFHRYCTYFGCEYIEISNGTLPMTNKEKAAYIADFSDEFLVLSEVGSKDAELASRQSSEEWLEYIVEDMEAGAEKVITEARESGTGGICSSSGDVRFQIVDDIISSDIDINRLIFEAPNKTLQQGFIQKIGPNVNLANIPFHDAIALETLRLGLRSDTFFL | not failed |
| SPFIRANTAWLGHLEFAYDLVRFEKPEILVELGTHMGASFFSFCQGVKDGGLATKCFAVDTWTGDGHTGPYGEGVFHIVDKVVKTSYPNIGNLIKSTFDEAVDQFQDGTINLLHIDGYHTYEAVSHDYKTWLPKLADNGIVLFHDIEVKDRNFGVYKFWDEVKAKYPHFQFQHSYGLGVLFPKGCSDRFKEILKNKEEIQDMYK | failed |
| MVEQRNRGRPAVPDAVVRESIVGAAQRLLSSGGAAAMTMEGVASEAGIAKKTLYRFASGRADLIGLLVESWIAPIFPGFEADPQDAAAALERIVYDIAQAVLSREAVSLFRMLASDADLRNRFLPAYNANGIERSRRELARWLDQQASAGRLPLPIPAERVADLLLSAVIAEPLRQITLGLREPLPAWDIAPRVADAVRLIAPGRER | not failed |
| GSSGSSGMSSMTQNLREVMKVMFKVPGFDRVLEKVTLVSAAPEKLICEMKVEEQHTNKLGTLHGGLTATLVDSISTMALMCTERGAPGVSVDMNITYMSPAKIGEEIVITAHILKQGKTLAFASVDLTNKTTGKLIAQGRHTKHLGNSGPSSG | not failed |
| MASSPRPTEQTKQFFQQWQTYQQLVDHNYMAHRQIHQAVGALIQQQFDRPFDFLDLGCGDAQAIAKTLTGSKINSYTGVDLSPNALALAQKNLDPFRQVELRETDFLTYLGEANQTAPASFDLIHVGFSLHHLLPEEKEQFFAHCFSLLRPGGCLVIYDVFRQPEQNRQQYIEAYLAKAESQWTALAPDQLQAIAAHIKECDFPELVATMAEIGQKVGFIPPQVLFTEPRGFHHCFAFAISQSGKALAQDGV | failed |
| MLGGNNDNPVPQVLMNDSQFRYQSNTSLNQLHLLGTMRAGCTIDPVNYFANDNLAPMMRLNSTRGRETENNNIMQRQQKLQISLNYNYNNNNTVVQDEVPKQNLVSTGLRLSYDDDERNSSVTSANGSITTPVYQSLGDNIRLDLNRQNDELDQFIKFRADQMAKGVRDIKQRHVTSFVTALEKDVSKKLQEKDHEIESMNKKNRELVDKIKQVAVEAQNWHYKAKYNESVVNALKVNLQQVMSHGNDNNAVGGGVADHHQMKEGFGDSEIDDEAASYNYLNIPGMPSTGMRCKLCNVKNVSVLLVPCRHLSLCKDCDVFTGVCPVCQSLKTSSVQVFFF | failed |
| MCQESVIVMQATQPLQTVSQAVPKEFLQADGGFNPNVAMFGIAILLMLANVFGYWQWGLPHWLCFSCSVLALHLSGTVIHDASHNAAHRNTIINAVLGHGSALMLGFAFPVFTRVHLQHHANVNDPENDPDHFVSTGGPLFLIAARFFYHEIFFFKRRLWRKYELLEWFLSRLVLFTIVFLGIHYGFIGFVMNYWFVPALIVGIALGLFFDYLPHRPFQERNRWKNARVYPSPILNWLIFGQNYHLIHHLWPSIPWYQYQNTYHITKPILDEKGCDQSLGLLEGKNFWSFLYDVFLGIRFHGHNNSQSSDKP | failed |
| MEKNDIFVVIPAYNEEKMIKNTLINLKSHGYENIIVVDDGSRDNTSKIAISEEVIVCKHIINRGLGGALKTGLKCAVKYNPKVIVTFDADGQHDPEDIFKVSEPILEDSFDVVVGSRLIDENELKNMPLIKKIGNWGLNFITYLMGGRMVTDSQGGLRAFSYDAAEIVSKQLKSNRYEVSSEFIVLFKKNNLKFKEVPIKTIYTEYSMARGTNVITGFKILFKLLIQKLILEHHHHHH | not failed |
| MKKNLFYLFALICSMSLFTACSDDDEAPGNSGVVGEVVGDYKGLMDVYYEPNVEIAKGMQQKITIKKSSDTSIGLELKNFVITVGGAPITIGDLAIDNCPLKVEGDKYSFTGNADLDLVVGKCAVSVEGAINGEDIELIIKVNVNNDLMKVRVEYKGKKMTGNESSEALIKEFKFDSDIIAEQPVINEDKTITFKVAETATDDDLKALKPIITISENATVTPESGVTQDFSGNKVVIYKVTSEDGTTVTEYKVSARKSSDALITSFVFENNPIVAEQPVINEDNTITFKVKASATADDLKALVPTITYSHKATIAPESGVAQDFSDNKKVIYTVTSEDGTVIKEYQVFISGTEDVYDFEKWLPGVEGQEPENTFYEAEGWASSNTGAHFLKGFNLTDSYVIMQTDDSHSGTAAAKIQSIDTKGQDLGIAKAPKVTTGSLFLGKFKTDIFNTLNSTKFGIPCKEKPISLRGWYKYTPGDVYYIVNTKPYKEHCHEAVVDETKVDEFMISVVLYETTAYDEIGWSDCLTGTDEEEKNIYTSSRIAAIGQLIGGAQTDWKKFELPLEWKKQYDTNKKYRMTIACSSSKDGDKFWGAPGSTLIVDDFELIKE | failed |
| MDLFDTPLAPLQVLDDAEGGVRYWPQLLAPAVAQAAFAALRDGADWQRHQRTMYDRVVDVPRLLASYRLDAPLPPGLPLQLLLAAVQAQLPAPYNAVGLNLYRDGRDSVAMHHDKLHTLLAPHPIALLSLGTPRRMQLRAKQGATRAITLELAPGSLLAMSHASQLTHEHGIPKTTRALGERISVVFRVRPPARMAAGQHGPHWEALTQTDLEHHHHHH | not failed |
| SLSRRKPNPVIVADIRQAEGALAEIATIDRKVGEIEAQMNEAIDAAKARASQKSAPLLARRKELEDGVATFATLNKTEMFKDRKSLDLGFGTIGFRLSTQIVQMSKITKDMTLERLRQFGISEGIRIKEDVNKEAMQGWPDERLEMVGLKRRTTDAFYIEINREEVADTAA | not failed |
| MIVITGASSGLGAELAKLYDAEGKATYLTGRSESKLSTVTNCLSNNVGYRACDLASHQEVEQLFEQLDSIPSTVVHSAGSGYFGPLEKQDPDQIQTLIENNLSSAINVLRELVKRYKDQPVNVVMIMSTAAQQPKAQESTYCAVKWAVKGLIESVRLELKGKPMKIIAVYPGGMATEFWETSGKSLDTSSFMSAEDAALMILGALANIGNGYVSDITVNRL | failed |
| MQIESFKSLLPKYKCIFFDAFGVLKTYNGLLPGIENTFDYLKAQGQDYYIVTNDASRSPEQLADSYHKLGLFSITADKIISSGMITKEYIDLKVDGGIVAYLGTANSANYLVSDGIKMLPVSAIDDSNIGEVNALVLLDDEGFNWFHDLNKTVNLLRKRTIPAIVANTDNTYPLTKTDVAIAIGGVATMIESILGRRFIRFGKPDSQMFMFAYDMLRQKMEISKREILMVGDTLHTDILGGNKFGLDTALVLTGNTRIDDAETKIKSTGIVPTHICESAVIEL | not failed |
| MVYVAVLANIAGNFPALTAALEKIEELKEEGYEIEKYYILGNIVGLFPYPREVIEAIKNLAKTSNVKVIRGKYDQLIAMSDPHAGDPKYIDKLEIPDHLKATLKYTWEKLGHEGREYLRDLPIYLVDKIGKNEIFGVYGSPVNPFDGEILPDQPTSYYEAIMRPVKEYEMLLVASPRYPLDAMTMYGRVVCPGSIGFPPAREHKATFALVDAETLKVKFIEVEYDKKIIEDRIKLEKLPEEVIKILYHGGKA | not failed |
| MSIKILSESEIKQVANSYQAPAVLFANPKNLYQRRAKRLRDLAQNHPLSDYLLFAADIVESQLSTLEKNPLPPQQLEQLNTIEPLNAKTFKRNSIWREYLTEILDEIKPKANEQIAATIEFLEKASSAELEEMANKLLAQEFNLVSSDKAVFIWAALSLYWLQAAQQIPHNSQVENAENLHHCPVCGSLPVASMVQIGTSQGLRYLHCNLCESEWNLVRAQCTNCNSHDKLEMWSLNEELALVRAETCGSCESYLKMMFQEKDPYVEPVADDLASIFLDIEMEEKGFARSGLNPFIFPAEEA | failed |
| GYDHKGMGITARGAWESVKRHFRALGRDCQNEDFRCIGVGDMSGDVFGNGMLLSRHSLLVAAFDHRHIFLDPMPDAALSFAERERLFKLPRSSWADYDATLISKGGGIYPRTLKSIQISPQVAEVLGLDKGIKQLSPNVLISAILKAPVDLFWNGGIGTYVKASSETHADVGDRANNALRVNGLELRCKVVGEGGNLGLTQLGRIEAAQRGVLLNTDFIDNSAGVDTSDHEVNIKILLNDVVQAKTLCFDARNALLASMTDDVAQLVLWDNIRQNQALSLMERMSVKRLGSKQHFIRTLERQGLLDRQIEFLPSDAELSARKARGLGL | failed |
| EAKAKANTTRSLQALINLQPQQATVITEQGDQQITVEQITLGMKLRIKPGEKVPVDGVVIQGESYIDESMLTGEPVPVLKAQEAQVSAGTLNTDGALIIEATGIGANTMLARIIRMVRTAQSSKPAIAKLADQ | failed |
| MNEELKKSIAASIENTRFDILQMIELGRELIDYPDEIHHGPVVSMGVPKDTLPKWDDIQILTAQLHKKPLIDDAPVDTQLVIGPRAQKPLVLDIPLLVGDMSYGALSKRAKQALSKGADLAGTAICSGEGGILGDELELNQSYMFELGSARNGLKKNSDLSQFSKDFKGKVKAFHFKGGQAAKTGTGGHLPGGKVTEEIAKARQIEVGKDAISPSTFADFHTPRDFADFADQIRDQMGGIPIGFKISANHIEDDMRFALDAGADYIILDGRGGSTGAAPGIFRDHISVPTIAALARARKFLDVAGHEKGAKNSVTLIITGGLRIPSDFIKALALGADGIALANSALQAIGCTGARICYSGDCPAGIATHAQHLVNKIDVDARARDLALFFNGSVHLMKIMTRACGHHSLREFSRDDICTWKAEISRLAGIPYAGVDPSNP | failed |
| MLDLKSYREKELASYDLDVELFNEFNFSVYNVMPLRKAFLISTDKGEKILKKIDYTIEEFKFVLAAVNYIKNENEFNRIIDFNKTQSGEYYCIKNGDLYCVMDMIEGKECEFSNPVDLSISSFGLGQLHSASEGFRYSKIASKNICGKMIKGFKRKKEEVNFLKKMVNLYESLNEFDEIFIKNVDYYLEQIDKSIDIMNKSQYYKLCSEEDKIVLCHHDLAHHNIIIKDEEAYFIDFDYAIIDLKVHDLSNIISKAAKVFNYSIDNSKIIISNYCKSNTLSKNEMEVLFGMLSFPEDFYEIVKSYYTKRKDWSNEEFINKMKRKMANEENRVEFLKNFKEDLKI | failed |
| MFSRKDIIVLGMMIFALFLGAGNIIFPPMEGFSSGQHWTSASLGFVLTGVLMPFITLVVVAILGRGEELTKDLPKWAGTGFLVILYLTIGSTFAMPRITNVAYEMAWLPLGLTENNANVRFVFSLIFNLIAMGFMISPNTIISSVGKFMTPALLVLLIAVAITVFISPLSEIQAPSNAYENSHSLLIGLTSGYQTMDVLAAIAFGGIVARALSAKNVTKTKDIVKYTISAGFVSVILLAGLYFSLFYLGATSAAVAEGATNGGQIFSRYVNVLFGSAGTWIMAGIIVLASLTTLVGVTSASADYFSKFSVRFSYPFWAALFTAMTITVSQYGLTDLLRITIPALLLIYPVAIVLVLLQFLRKKLPSIKFTYNSTLLVTVCFSLCDSLNNVKMLPESINSLLKHFPLSSEGMAWLVPTLVMLVASIFIGKALHKTHS | failed |
| MTVLYKGSLKQNNDPFHVTLLSKEHIEQILFLQNVVVEGLEDKSRLQPLSQEEFQYILEGNGMMIGAFIKNELIAFRALLVPPIDDEHLGLDIGLPESELHRVIYQEISNVHPNCRGNGMQKILATVIMDELQKENGKYDYVCCTVAPFNIPSLKDKFSQGMEIAALKEKYGGSMRYVFVKELREDKEKDWTEIKSVPMNNAGGQQALLSEGYRGYEMEKVDEDFVVKFGR | failed |
